According to publication PMC8081924 (The Journal of Biological Chemistry, 2021):
Values joined by “and” are separate entries in the source; they are usually repeats but may differ in a detail not shown here. Equal entries are not always repeated. Where two headings read alike, the source gives them in different places.

B1: full-length human D-3-phosphoglycerate dehydrogenase (PHGDH, 1-533), wild type (enzyme, UniProt O43175 1-533, looked up)
chain: MAFANLRKVLISDSLDPCCRKILQDGGLQVVEKQNLSKEELIAELQDCEGLIVRSATKVTADVINAAEKLQVVGRAGTGVDNVDLEAATRKGILVMNTPNGNSLSAAELTCGMIMCLARQIPQATASMKDGKWERKKFMGTELNGKTLGILGLGRIGREVATRMQSFGMKTIGYDPIISPEVSASFGVQQLPLEEIWPLCDFITVHTPLLPSTTGLLNDNTFAQCKKGVRVVNCARGGIVDEGALLRALQSGQCAGAALDVFTEEPPRDRALVDHENVISCPHLGASTKEAQSRCGEEIAVQFVDMVKGKSLTGVVNAQALTSAFSPHTKPWIGLAEALGTLMRAWAGSPKGTIQVITQGTSLKNAGNCLSPAVIVGLLKEASKQADVNLVNAKLLVKEAGLNVTTSHSPAAPGEQGFGECLLAVALAGAPYQAVGLVQGTTPVLQGLNGAVFRPEVPLRRDLPLLLFRTQTSDPAMLPTMIGLLAEAGVRLLSYQTSLVSDGETWHVMGISSLLPSLEAWKQHVTEAFQFHF
B2: full-length PHGDH E108A (enzyme, human, UniProt O43175 1-533, looked up)
chain: MAFANLRKVLISDSLDPCCRKILQDGGLQVVEKQNLSKEELIAELQDCEGLIVRSATKVTADVINAAEKLQVVGRAGTGVDNVDLEAATRKGILVMNTPNGNSLSAAALTCGMIMCLARQIPQATASMKDGKWERKKFMGTELNGKTLGILGLGRIGREVATRMQSFGMKTIGYDPIISPEVSASFGVQQLPLEEIWPLCDFITVHTPLLPSTTGLLNDNTFAQCKKGVRVVNCARGGIVDEGALLRALQSGQCAGAALDVFTEEPPRDRALVDHENVISCPHLGASTKEAQSRCGEEIAVQFVDMVKGKSLTGVVNAQALTSAFSPHTKPWIGLAEALGTLMRAWAGSPKGTIQVITQGTSLKNAGNCLSPAVIVGLLKEASKQADVNLVNAKLLVKEAGLNVTTSHSPAAPGEQGFGECLLAVALAGAPYQAVGLVQGTTPVLQGLNGAVFRPEVPLRRDLPLLLFRTQTSDPAMLPTMIGLLAEAGVRLLSYQTSLVSDGETWHVMGISSLLPSLEAWKQHVTEAFQFHF
B3: full-length PHGDH G140R (enzyme, human, UniProt O43175 1-533, looked up)
chain: MAFANLRKVLISDSLDPCCRKILQDGGLQVVEKQNLSKEELIAELQDCEGLIVRSATKVTADVINAAEKLQVVGRAGTGVDNVDLEAATRKGILVMNTPNGNSLSAAELTCGMIMCLARQIPQATASMKDGKWERKKFMRTELNGKTLGILGLGRIGREVATRMQSFGMKTIGYDPIISPEVSASFGVQQLPLEEIWPLCDFITVHTPLLPSTTGLLNDNTFAQCKKGVRVVNCARGGIVDEGALLRALQSGQCAGAALDVFTEEPPRDRALVDHENVISCPHLGASTKEAQSRCGEEIAVQFVDMVKGKSLTGVVNAQALTSAFSPHTKPWIGLAEALGTLMRAWAGSPKGTIQVITQGTSLKNAGNCLSPAVIVGLLKEASKQADVNLVNAKLLVKEAGLNVTTSHSPAAPGEQGFGECLLAVALAGAPYQAVGLVQGTTPVLQGLNGAVFRPEVPLRRDLPLLLFRTQTSDPAMLPTMIGLLAEAGVRLLSYQTSLVSDGETWHVMGISSLLPSLEAWKQHVTEAFQFHF
B4: full-length PHGDH I121A (enzyme, human, UniProt O43175 1-533, looked up)
chain: MAFANLRKVLISDSLDPCCRKILQDGGLQVVEKQNLSKEELIAELQDCEGLIVRSATKVTADVINAAEKLQVVGRAGTGVDNVDLEAATRKGILVMNTPNGNSLSAAELTCGMIMCLARQAPQATASMKDGKWERKKFMGTELNGKTLGILGLGRIGREVATRMQSFGMKTIGYDPIISPEVSASFGVQQLPLEEIWPLCDFITVHTPLLPSTTGLLNDNTFAQCKKGVRVVNCARGGIVDEGALLRALQSGQCAGAALDVFTEEPPRDRALVDHENVISCPHLGASTKEAQSRCGEEIAVQFVDMVKGKSLTGVVNAQALTSAFSPHTKPWIGLAEALGTLMRAWAGSPKGTIQVITQGTSLKNAGNCLSPAVIVGLLKEASKQADVNLVNAKLLVKEAGLNVTTSHSPAAPGEQGFGECLLAVALAGAPYQAVGLVQGTTPVLQGLNGAVFRPEVPLRRDLPLLLFRTQTSDPAMLPTMIGLLAEAGVRLLSYQTSLVSDGETWHVMGISSLLPSLEAWKQHVTEAFQFHF
B5: full-length PHGDH R119A (enzyme, human, UniProt O43175 1-533, looked up)
chain: MAFANLRKVLISDSLDPCCRKILQDGGLQVVEKQNLSKEELIAELQDCEGLIVRSATKVTADVINAAEKLQVVGRAGTGVDNVDLEAATRKGILVMNTPNGNSLSAAELTCGMIMCLAAQIPQATASMKDGKWERKKFMGTELNGKTLGILGLGRIGREVATRMQSFGMKTIGYDPIISPEVSASFGVQQLPLEEIWPLCDFITVHTPLLPSTTGLLNDNTFAQCKKGVRVVNCARGGIVDEGALLRALQSGQCAGAALDVFTEEPPRDRALVDHENVISCPHLGASTKEAQSRCGEEIAVQFVDMVKGKSLTGVVNAQALTSAFSPHTKPWIGLAEALGTLMRAWAGSPKGTIQVITQGTSLKNAGNCLSPAVIVGLLKEASKQADVNLVNAKLLVKEAGLNVTTSHSPAAPGEQGFGECLLAVALAGAPYQAVGLVQGTTPVLQGLNGAVFRPEVPLRRDLPLLLFRTQTSDPAMLPTMIGLLAEAGVRLLSYQTSLVSDGETWHVMGISSLLPSLEAWKQHVTEAFQFHF
B6: sPHGDH (catalytic unit of human D-3-phosphoglycerate dehydrogenase, 1-307), wild type (domain or fragment, UniProt O43175 1-307, looked up)
chain: MAFANLRKVLISDSLDPCCRKILQDGGLQVVEKQNLSKEELIAELQDCEGLIVRSATKVTADVINAAEKLQVVGRAGTGVDNVDLEAATRKGILVMNTPNGNSLSAAELTCGMIMCLARQIPQATASMKDGKWERKKFMGTELNGKTLGILGLGRIGREVATRMQSFGMKTIGYDPIISPEVSASFGVQQLPLEEIWPLCDFITVHTPLLPSTTGLLNDNTFAQCKKGVRVVNCARGGIVDEGALLRALQSGQCAGAALDVFTEEPPRDRALVDHENVISCPHLGASTKEAQSRCGEEIAVQFVDMV
B7: sPHGDH R135A (domain or fragment, human, UniProt O43175 1-307, looked up)
chain: MAFANLRKVLISDSLDPCCRKILQDGGLQVVEKQNLSKEELIAELQDCEGLIVRSATKVTADVINAAEKLQVVGRAGTGVDNVDLEAATRKGILVMNTPNGNSLSAAELTCGMIMCLARQIPQATASMKDGKWEAKKFMGTELNGKTLGILGLGRIGREVATRMQSFGMKTIGYDPIISPEVSASFGVQQLPLEEIWPLCDFITVHTPLLPSTTGLLNDNTFAQCKKGVRVVNCARGGIVDEGALLRALQSGQCAGAALDVFTEEPPRDRALVDHENVISCPHLGASTKEAQSRCGEEIAVQFVDMV
B8: sPHGDH R236E (domain or fragment, human, UniProt O43175 1-307, looked up)
chain: MAFANLRKVLISDSLDPCCRKILQDGGLQVVEKQNLSKEELIAELQDCEGLIVRSATKVTADVINAAEKLQVVGRAGTGVDNVDLEAATRKGILVMNTPNGNSLSAAELTCGMIMCLARQIPQATASMKDGKWERKKFMGTELNGKTLGILGLGRIGREVATRMQSFGMKTIGYDPIISPEVSASFGVQQLPLEEIWPLCDFITVHTPLLPSTTGLLNDNTFAQCKKGVRVVNCAEGGIVDEGALLRALQSGQCAGAALDVFTEEPPRDRALVDHENVISCPHLGASTKEAQSRCGEEIAVQFVDMV
B9: sPHGDH R135W (domain or fragment, human, UniProt O43175 1-307, looked up)
chain: MAFANLRKVLISDSLDPCCRKILQDGGLQVVEKQNLSKEELIAELQDCEGLIVRSATKVTADVINAAEKLQVVGRAGTGVDNVDLEAATRKGILVMNTPNGNSLSAAELTCGMIMCLARQIPQATASMKDGKWEWKKFMGTELNGKTLGILGLGRIGREVATRMQSFGMKTIGYDPIISPEVSASFGVQQLPLEEIWPLCDFITVHTPLLPSTTGLLNDNTFAQCKKGVRVVNCARGGIVDEGALLRALQSGQCAGAALDVFTEEPPRDRALVDHENVISCPHLGASTKEAQSRCGEEIAVQFVDMV

Tests used:
AUC [1] = target: the molecule itself; assay: AUC
AUC [2] = target: the molecule itself; assay: AUC; remark: listed apart in the source
[3] = target: the molecule itself
O43175 = assay: AUC
AUC [4] = target: the molecule itself; assay: AUC; remark: listed apart in the source
AUC [5] = target: the molecule itself; assay: AUC; remark: listed apart in the source
[6] = target: the molecule itself; assay: cell-based or functional assay

| Protein | stoichiometry N (AUC [2]) | stoichiometry N (AUC [5]) | other results |
| --- | --- | --- | --- |
| B1 | – | – | stoichiometry N (AUC [1]): 2 and 4 |
| B2 | 2 | – | – |
| B3 | 2 | – | – |
| B4 | 2 | – | – |
| B5 | 2 | – | – |
| B6 | – | – | Kd [3]: 580 nM; total concentration at which the dimer and monomer peak ratio is 1:1 (O43175): the 1:1 ratio at about 1 μM; stoichiometry N (AUC [4]): 2 |
| B7 | – | 2 | enzyme activity of the sPHGDH mutant at 2.4 μM against WT [6]: ~80 % of WT |
| B8 | – | 2 | – |
| B9 | – | 2 | – |
